Source: patent US20220153851A1 (Five Prime, published 2022)
Read-outs that look alike come from different tables or passages of the source.

Key:
mCSF1R ECD-Fc = target: T1, mCSF1R ECD-Fc (mouse); test: ELISA, plate coated with mCSF1R ECD-Fc, detection anti-human kappa-HRP, A450
T1 construct: also called mouse CSF1R ECD
Protocol: (§1) Ninety-six well clear-bottom ELISA plates were coated overnight with 1 μg/ml recombinant hCSF1R ECD.506-Fc (SEQ ID NO: 6; FivePrime Therapeutics) or Human M-CSF R Fc Chimera (R&D Systems) in PBS. The next morning, wells were washed four times with 0.05% Tween20 in PBS (PBST) and blocked with Blocker-Blotto (Pierce). Fifty μl of 0.5× serial dilutions of the humanized antibody or parental chimeric antibody, beginning with 2000 ng/ml, diluted 1:1 in Blocker-Blotto were added to the CSF1R-coated wells. After incubation at room temperature (RT) for 90 min, wells were washed four times with PBST, and a 1:5000 dilution of a peroxidase-conjugated Goat anti-Human kappa Light chain antibody (Sigma) in Blocker-Blotto was added to each well. After incubation at RT for 60 min, wells were washed four times with PBST, and 50 μl o-phenylenediamine dihydrochloride peroxidase substrate (Sigma) was added to each well. After incubation at RT for 30 min, A450 values of each well were read directly on a SpectraMaxPlus spectrophotometer with SoftMaxPro software (Molecular Devices).
(§2) The binding curve for each humanized antibody binding to mouse CSF1R ECD was determined as described above for human CSF1R, except the wells of the clear-bottom ELISA plates were coated overnight with 2 μg/ml recombinant mCSF1R ECD-Fc (FivePrime Therapeutics, SEQ ID NO: 93).

hCSF1R ECD.506-Fc = target: T2, hCSF1R ECD.506-Fc (human); test: ELISA, plate coated with human CSF1R ECD-Fc
T2 construct: also called human CSF1R ECD-Fc fusion protein; human CSF1R ECD
Protocol: as §1

[1] = target: T3, human CSF1R on CSF1R (SEQ ID NO: 2)-transfected CHO cells (human, UniProt P07333 20-972); test: cell-based or functional assay
[2] = target: T3, human CSF1R on CSF1R (SEQ ID NO: …); test: cell-based or functional assay; remark: listed apart in the source
hCSF1R ECD.506 = target: T4, hCSF1R ECD.506 (human, UniProt P07333 20-506); test: SPR Biacore T100, antibody captured on anti-human IgG, hCSF1R ECD.506 as analyte, 1:1 model
T4 construct: also called human CSF1R ECD
Protocol: The kₐ, kd, and KD for binding to human CSF1R ECD was determined for each of the humanized antibodies as follows.
Binding kinetics of anti-CSF1R humanized antibodies to CSF1R ECD was determined using Biacore T100 Surface Plasmon Resonance (SPR) (GE Healthcare Life Sciences, Piscataway, N.Y.). Each of the humanized anti-CSF1R antibodies was captured on a CM5 sensor chip immobilized with anti-Human IgG antibody using the Human antibody capture kit (GE Healthcare Life Sciences, Piscataway, N.Y.) at 150 RU so that the Rmax value for hCSF1R ECD.506 (SEQ ID NO: 5) binding was 100 RU. Rmax values of less than 150 RU are recommended for accurately determining kinetic values. […] The association constant, dissociation constant, affinity, and binding capacity of each of the Fabs for human CSF1R ECD was calculated using the Biacore T100 Evaluation software package using the 1:1 binding model.

[3] = target: T3, human CSF1R on CSF1R (SEQ ID NO: …); test: cell-based or functional assay; remark: listed apart in the source
cynoCSF1R ECD-Fc [4] = target: T5, cynoCSF1R ECD-Fc (cynomolgus); test: competition ELISA, blocking of human CSF1 binding to cynoCSF1R ECD-Fc
T5 construct: also called cynomolgus CSF1R ECD
Protocol: (§3) The humanized antibodies, along with the parental chimeric antibodies (cAbs), were tested for their ability to block human CSF1 binding to human and cynomolgus CSF1R ECD, as follows.
(§4) Recombinant Human CSF1 (M-CSF; R&D Systems) was biotinylated using an NH₂-Biotin Labeling Kit (Dojindo Molecular Technologies). One hundred μl of 1 μg/ml biotinylated CSF1 in PBST/0.1% BSA was added to the wells of Reacti-Bind Streptavidin coated plates (Pierce) pre-blocked with SuperBlock blocking buffer (Pierce) according to the manufacturer's instructions. Fifty μl of 0.5× serial dilutions of the humanized antibody or parental chimeric antibody, beginning with 2000 ng/ml, was incubated with 50 ng/ml hCSF1R ECD.506-Fc (SEQ ID NO: 6; FivePrime Therapeutics) or 50 ng/ml cynoCSF1R ECD-Fc (FivePrime Therapeutics, SEQ ID NO: 8, but without the 19 amino acid leader sequence) in 100 μl PBST/0.1% BSA for 90 min at RT, after which the admix was transferred to one or more wells of a ligand-coated plate. After 90 min at RT, wells were washed with PBST, and a 1:5000 dilution of an Fc-fragment-specific peroxidase-conjugated goat anti-human IgG (Jackson Immuno Research) in PBST/0.1% BSA was added to each well. After incubation at RT for 60 min, wells were washed with PBST/0.1% BSA, and o-phenylenediamine dihydrochloride peroxidase substrate (Sigma) was added to each well. After incubation at RT for 30 min, A450 values of each well were read directly on a SpectraMaxPlus spectrophotometer with SoftMaxPro software (Molecular Devices).

cynoCSF1R ECD-Fc [5] = target: T5, cynoCSF1R ECD-Fc; test: competition ELISA, blocking of human IL34 binding to cynoCSF1R ECD-Fc
cynoCSF1R ECD-Fc [6] = target: T5, cynoCSF1R ECD-Fc; test: ELISA, plate coated with cynoCSF1R ECD-Fc
Protocol: as §1
as §2, with “cynomolgus” for “mouse”, “cynoCSF1R” for “mCSF1R”, “8, but without the 19 amino acid leader sequence).” for “93).”

[7] = target: T3, human CSF1R on CSF1R (SEQ ID NO: …); test: cell-based or functional assay; remark: listed apart in the source
cynoCSF1R ECD-Fc [8] = target: T5, cynoCSF1R ECD-Fc; test: competition ELISA, blocking of human CSF1 binding to cynoCSF1R ECD-Fc; blocking of human CSF1 binding to cynoCSF1R ECD
Protocol: as §3
as §4, with “After incubation at RT for 60 min, wells were washed with PBST/0.1% BSA, and o-phenylenediamine dihydrochloride peroxidase substrate (Sigma) was added to each well.” left out

[9] = target: T3, human CSF1R on CSF1R (SEQ ID NO: …); test: cell-based or functional assay; remark: listed apart in the source
cynoCSF1R ECD-Fc [10] = target: T5, cynoCSF1R ECD-Fc; test: competition ELISA, blocking of human IL34 binding to cynoCSF1R ECD-Fc (curve-fit value far beyond the range tested); blocking of human IL34 binding to cynoCSF1R ECD
Protocol: Recombinant Human CSF1 (M-CSF; R&D Systems) was biotinylated using an NH₂-Biotin Labeling Kit (Dojindo Molecular Technologies). One hundred μl of 1 μg/ml biotinylated CSF1 in PBST/0.1% BSA was added to the wells of Reacti-Bind Streptavidin coated plates (Pierce) pre-blocked with SuperBlock blocking buffer (Pierce) according to the manufacturer's instructions. […] After incubation at RT for 30 min, A450 values of each well were read directly on a SpectraMaxPlus spectrophotometer with SoftMaxPro software (Molecular Devices).
The humanized antibodies were tested for their ability to block human IL34 binding to human CSF1R ECD. The blocking activity of each humanized antibody was determined as described above for blocking of CSF1, except recombinant human IL34 (FivePrime Therapeutics; SEQ ID NO: 68) was biotinylated using an NH2-Biotin Labeling Kit (Dojindo Molecular Technologies), and then 100 μl of 1 μg/ml biotinylated recombinant IL34 in PBST/0.1% BSA was added to the wells of Reacti-Bind Streptavidin coated plates (Pierce) pre-blocked with SuperBlock blocking buffer (Pierce) according to the manufacturer's instructions.

[11] = target: T3, human CSF1R on CSF1R (SEQ ID NO: …); test: cell-based or functional assay; remark: listed apart in the source
cynoCSF1R ECD-Fc [12] = target: T5, cynoCSF1R ECD-Fc; test: competition ELISA, blocking of human CSF1 binding to cynoCSF1R ECD-Fc (curve-fit value beyond the range tested)
Protocol: as §4

T1 sequence (chain, as listed by the source limits assumed): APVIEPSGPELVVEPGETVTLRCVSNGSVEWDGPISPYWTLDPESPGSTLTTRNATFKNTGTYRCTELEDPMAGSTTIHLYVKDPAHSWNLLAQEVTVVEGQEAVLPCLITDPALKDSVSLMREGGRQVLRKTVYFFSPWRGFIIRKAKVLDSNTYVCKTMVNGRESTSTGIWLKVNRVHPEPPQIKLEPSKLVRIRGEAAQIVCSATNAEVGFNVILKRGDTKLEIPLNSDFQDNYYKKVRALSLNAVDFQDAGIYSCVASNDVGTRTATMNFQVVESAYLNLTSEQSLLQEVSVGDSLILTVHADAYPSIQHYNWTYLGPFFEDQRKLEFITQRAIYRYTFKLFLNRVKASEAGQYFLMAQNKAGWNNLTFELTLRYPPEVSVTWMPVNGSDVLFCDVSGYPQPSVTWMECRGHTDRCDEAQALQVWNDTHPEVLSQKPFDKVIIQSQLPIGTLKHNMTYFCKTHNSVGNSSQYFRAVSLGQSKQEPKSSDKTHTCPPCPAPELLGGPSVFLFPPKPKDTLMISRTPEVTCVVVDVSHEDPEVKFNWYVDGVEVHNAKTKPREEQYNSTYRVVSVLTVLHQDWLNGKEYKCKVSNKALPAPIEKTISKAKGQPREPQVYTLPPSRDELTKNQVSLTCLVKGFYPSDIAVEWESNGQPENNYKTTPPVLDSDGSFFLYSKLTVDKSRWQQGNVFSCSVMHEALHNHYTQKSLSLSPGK
T4 sequence (P07333 20-506): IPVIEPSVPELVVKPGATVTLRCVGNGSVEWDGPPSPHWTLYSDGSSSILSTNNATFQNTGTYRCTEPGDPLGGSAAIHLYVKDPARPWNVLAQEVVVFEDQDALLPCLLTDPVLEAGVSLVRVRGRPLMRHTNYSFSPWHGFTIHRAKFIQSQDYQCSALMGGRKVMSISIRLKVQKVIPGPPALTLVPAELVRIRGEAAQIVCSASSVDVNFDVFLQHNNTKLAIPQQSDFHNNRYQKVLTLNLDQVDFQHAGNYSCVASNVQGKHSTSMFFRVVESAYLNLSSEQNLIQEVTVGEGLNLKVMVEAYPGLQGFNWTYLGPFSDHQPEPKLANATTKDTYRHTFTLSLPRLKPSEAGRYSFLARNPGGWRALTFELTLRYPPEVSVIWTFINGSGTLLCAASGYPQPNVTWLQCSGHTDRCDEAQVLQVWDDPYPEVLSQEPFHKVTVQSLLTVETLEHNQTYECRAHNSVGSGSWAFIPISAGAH
T2 sequence (chain, as listed by the source limits assumed): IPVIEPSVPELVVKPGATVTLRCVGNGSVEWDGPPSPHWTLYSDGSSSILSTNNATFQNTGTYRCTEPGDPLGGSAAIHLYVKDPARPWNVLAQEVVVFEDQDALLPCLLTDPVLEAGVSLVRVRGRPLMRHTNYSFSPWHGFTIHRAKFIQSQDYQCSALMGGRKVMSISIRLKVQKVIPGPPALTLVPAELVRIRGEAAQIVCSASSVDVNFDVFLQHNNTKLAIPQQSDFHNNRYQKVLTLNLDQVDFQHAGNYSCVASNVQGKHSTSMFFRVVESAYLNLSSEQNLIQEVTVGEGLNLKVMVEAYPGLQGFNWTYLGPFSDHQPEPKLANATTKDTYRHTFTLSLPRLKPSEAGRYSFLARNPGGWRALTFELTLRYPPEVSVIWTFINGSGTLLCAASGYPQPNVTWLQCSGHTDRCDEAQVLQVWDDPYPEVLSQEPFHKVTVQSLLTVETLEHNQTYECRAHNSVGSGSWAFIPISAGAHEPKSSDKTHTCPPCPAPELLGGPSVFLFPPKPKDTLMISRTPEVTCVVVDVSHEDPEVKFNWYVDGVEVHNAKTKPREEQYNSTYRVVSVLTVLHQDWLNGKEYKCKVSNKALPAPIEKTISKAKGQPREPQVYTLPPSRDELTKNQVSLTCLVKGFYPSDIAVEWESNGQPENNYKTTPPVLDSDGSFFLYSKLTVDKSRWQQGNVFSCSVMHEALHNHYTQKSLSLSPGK
T3 sequence (P07333 20-972): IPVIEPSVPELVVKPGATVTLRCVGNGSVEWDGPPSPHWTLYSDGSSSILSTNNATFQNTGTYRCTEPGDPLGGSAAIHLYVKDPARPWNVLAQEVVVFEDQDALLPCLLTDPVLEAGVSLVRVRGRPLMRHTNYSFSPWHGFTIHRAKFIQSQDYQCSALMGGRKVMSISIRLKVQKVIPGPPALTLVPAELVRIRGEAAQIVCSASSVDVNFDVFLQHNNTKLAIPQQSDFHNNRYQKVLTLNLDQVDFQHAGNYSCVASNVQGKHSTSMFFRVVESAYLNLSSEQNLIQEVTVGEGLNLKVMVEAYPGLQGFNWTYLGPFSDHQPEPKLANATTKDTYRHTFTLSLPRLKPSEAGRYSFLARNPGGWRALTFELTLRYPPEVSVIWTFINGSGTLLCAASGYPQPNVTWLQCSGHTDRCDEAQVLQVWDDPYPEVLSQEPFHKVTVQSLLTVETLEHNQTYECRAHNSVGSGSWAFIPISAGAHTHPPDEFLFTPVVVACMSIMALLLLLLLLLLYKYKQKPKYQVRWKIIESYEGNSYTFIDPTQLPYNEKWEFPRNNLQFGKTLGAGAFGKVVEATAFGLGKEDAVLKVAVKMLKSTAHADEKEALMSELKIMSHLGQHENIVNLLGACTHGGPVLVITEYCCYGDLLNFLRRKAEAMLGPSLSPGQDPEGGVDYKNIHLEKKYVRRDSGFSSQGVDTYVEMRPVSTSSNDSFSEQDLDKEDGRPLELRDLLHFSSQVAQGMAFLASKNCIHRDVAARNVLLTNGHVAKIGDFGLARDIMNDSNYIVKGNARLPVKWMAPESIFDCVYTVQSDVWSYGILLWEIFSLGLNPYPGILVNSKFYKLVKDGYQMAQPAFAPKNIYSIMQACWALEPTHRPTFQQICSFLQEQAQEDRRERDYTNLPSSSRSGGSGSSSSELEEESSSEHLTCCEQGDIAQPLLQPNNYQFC
T5 sequence (chain, as listed by the source): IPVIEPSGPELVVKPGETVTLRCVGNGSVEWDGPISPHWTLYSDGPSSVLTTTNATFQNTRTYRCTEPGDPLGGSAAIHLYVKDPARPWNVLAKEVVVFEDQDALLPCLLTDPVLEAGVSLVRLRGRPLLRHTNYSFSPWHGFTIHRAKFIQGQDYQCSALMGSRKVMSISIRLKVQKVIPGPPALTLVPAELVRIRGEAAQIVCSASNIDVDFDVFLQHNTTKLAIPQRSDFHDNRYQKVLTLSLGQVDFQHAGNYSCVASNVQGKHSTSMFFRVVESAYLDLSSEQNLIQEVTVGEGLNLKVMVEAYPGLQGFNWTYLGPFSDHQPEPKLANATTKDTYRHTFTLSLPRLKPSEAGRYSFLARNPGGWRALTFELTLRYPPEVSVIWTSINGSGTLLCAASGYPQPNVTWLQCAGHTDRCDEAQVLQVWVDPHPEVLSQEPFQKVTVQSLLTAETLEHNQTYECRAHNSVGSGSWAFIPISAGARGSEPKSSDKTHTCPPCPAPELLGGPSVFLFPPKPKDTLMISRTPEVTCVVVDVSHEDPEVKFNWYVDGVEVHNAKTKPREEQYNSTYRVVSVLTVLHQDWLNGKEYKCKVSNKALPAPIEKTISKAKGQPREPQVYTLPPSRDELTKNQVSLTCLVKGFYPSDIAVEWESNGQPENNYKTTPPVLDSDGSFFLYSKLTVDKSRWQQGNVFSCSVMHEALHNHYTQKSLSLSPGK

B1: h0311-L0H1 (antibody, human IgG4 S228P, kappa, V domains shown)
VH: QVQLVQSGAEVKKPGSSVKVSCKASGYIFTDYNMHWVRQAPGQGLEWMGEINPNNGVVVYNQKFKGRVTITVDKSTSTAYMELSSLRSEDTAVYYCTRALYHSNFGWYFDSWGQGTLVTVSS
VL: EIVLTQSPATLSLSPGERATLSCKASQSVDYDGDSHMNWYQQKPGQAPRLLIYTASNLESGIPARFSGSGSGTDFTLTISSLEPEDFAVYYCQQGNEDPWTFGQGTKVEIKR
notes: also called Ab13; huAb 0311-L0H1
binding result (mCSF1R ECD-Fc): no binding (tested: 2000 ng/ml) | EC50 (hCSF1R ECD.506-Fc): 0.0131 mg/L | IC50 (read off the curve), IL34-induced CSF1R phosphorylation [1]: ~0.4 mg/L | IC50, inhibition of CSF1-induced CSF1R phosphorylation (head prints 'Human CSF1/Human CSF1R ECD IC50') [2]: 0.291 mg/L | IC50, inhibition of IL34-induced CSF1R phosphorylation (head prints 'Human IL34/Human CSF1R ECD IC50') [2]: 0.343 mg/L | Kd (hCSF1R ECD.506): 0.44 nM | koff (hCSF1R ECD.506): 0.00054 s⁻¹ | kon (hCSF1R ECD.506): 1.22e+06 M⁻¹ s⁻¹ | CSF1 blocking IC50 (ligand-induced CSF1R phosphorylation in CHO cells) [3]: 0.127 mg/L | IL34 blocking IC50 (ligand-induced CSF1R phosphorylation in CHO cells) [3]: 0.338 mg/L | IC50 (cynoCSF1R ECD-Fc [4]): 0.0325 mg/L | IC50 (cynoCSF1R ECD-Fc [5]): 0.0504 mg/L | EC50 (cynoCSF1R ECD-Fc [6]): 0.0216 mg/L

B2: cAb 0301 (antibody, human IgG4 S228P, kappa, V domains shown)
VH: EVQLQQSGPELVRPGASVKMSCKASGYTFTDNYMIWVKQSHGKSLEWIGDINPYNGGTTFNQKFKGKATLTVEKSSSTAYMQLNSLTSEDSAVYYCARESPYFSNLYVMDYWGQGTSVTVSS
VL: NIVLTQSPASLAVSLGQRATISCKASQSVDYDGDNYMNWYQQKPGQPPKLLIYAASNLESGIPARFSGSGSGTDFTLNIHPVEEEDAATYYCHLSNEDLSTFGGGTKLEIKR
binding result (mCSF1R ECD-Fc): no binding (tested: 2000 ng/ml) | EC50 (hCSF1R ECD.506-Fc): 0.0114 mg/L | IC50 (read off the curve), CSF1-induced CSF1R phosphorylation [7]: ~0.3 mg/L | IC50, inhibition of CSF1-induced CSF1R phosphorylation (head prints 'Human CSF1/Human CSF1R ECD IC50') [2]: 0.307 mg/L | IC50, inhibition of IL34-induced CSF1R phosphorylation (head prints 'Human IL34/Human CSF1R ECD IC50') [2]: 0.312 mg/L | IC50 (cynoCSF1R ECD-Fc [8]): 0.022 mg/L | IC50 (cynoCSF1R ECD-Fc [5]): 0.0295 mg/L | EC50 (cynoCSF1R ECD-Fc [6]): 0.0152 mg/L

B3: h0302-L0H1 (antibody, human IgG4 S228P, kappa, V domains shown)
VH: QVQLVQSGAEVKKPGSSVKVSCKASGYTFSDFNIHWVRQAPGQGLEWMGYINPYTDVTVYNEKFKGRVTITSDKSTSTAYMELSSLRSEDTAVYYCASYFDGTFDYALDYWGQGTLVTVSS
VL: EIVLTQSPATLSLSPGERATLSCRASESVDNYGLSFMNWYQQKPGQAPRLLIYTASNLESGIPARFSGSGSGTDFTLTISSLEPEDFAVYYCQQSKELPWTFGQGTKVEIKR
notes: also called Ab7; huAb 0302-L0H1
IC50 (read off the curve), IL34-induced CSF1R phosphorylation [9]: ~0.6 mg/L | IC50 (cynoCSF1R ECD-Fc [10]): > 2 mg/L | binding result (mCSF1R ECD-Fc): no binding (tested: 2000 ng/ml) | EC50 (hCSF1R ECD.506-Fc): 0.0146 mg/L | IC50, inhibition of CSF1-induced CSF1R phosphorylation (head prints 'Human CSF1/Human CSF1R ECD IC50') [2]: 0.928 mg/L | IC50, inhibition of IL34-induced CSF1R phosphorylation (head prints 'Human IL34/Human CSF1R ECD IC50') [2]: 0.615 mg/L | IC50 (read off the curve), CSF1-induced CSF1R phosphorylation [11]: ~1 mg/L | Kd (hCSF1R ECD.506): 1.04 nM | koff (hCSF1R ECD.506): 0.00369 s⁻¹ | kon (hCSF1R ECD.506): 3.54e+06 M⁻¹ s⁻¹ | IC50 (cynoCSF1R ECD-Fc [4]): 0.0155 mg/L | EC50 (cynoCSF1R ECD-Fc [6]): 0.467 mg/L

B4: h0302-L2H1 (antibody, human IgG4 S228P, kappa, V domains shown)
VH: QVQLVQSGAEVKKPGSSVKVSCKASGYTFSDFNIHWVRQAPGQGLEWMGYINPYTDVTVYNEKFKGRVTITSDKSTSTAYMELSSLRSEDTAVYYCASYFDGTFDYALDYWGQGTLVTVSS
VL: EIVVTQSPATLSLSPGERATLSCRASESVDNYGLSFMNWFQQKPGQAPRLLIYTASNLESGIPARFSGSGSRTDFTLTISSLEPEDFAVYYCQQSKELPWTFGQGTKVEIKR
notes: also called Ab9; huAb 0302-L2H1
binding result (mCSF1R ECD-Fc): no binding (tested: 2000 ng/ml) | EC50 (hCSF1R ECD.506-Fc): 0.00774 mg/L | IC50 (cynoCSF1R ECD-Fc [12]): 89.8 mg/L | IC50, inhibition of CSF1-induced CSF1R phosphorylation (head prints 'Human CSF1/Human CSF1R ECD IC50') [2]: 0.384 mg/L | IC50, inhibition of IL34-induced CSF1R phosphorylation (head prints 'Human IL34/Human CSF1R ECD IC50') [2]: 0.303 mg/L | Kd (hCSF1R ECD.506): 0.57 nM | koff (hCSF1R ECD.506): 0.000914 s⁻¹ | kon (hCSF1R ECD.506): 1.6e+06 M⁻¹ s⁻¹ | IC50 (cynoCSF1R ECD-Fc [5]): 0.509 mg/L | EC50 (cynoCSF1R ECD-Fc [6]): 0.066 mg/L
